Assay results reported in article PMC4873975 (2016).

T1: FcɛRIα (recombinant, soluble) (human, UniProt P12319 26-205)
T1 chain: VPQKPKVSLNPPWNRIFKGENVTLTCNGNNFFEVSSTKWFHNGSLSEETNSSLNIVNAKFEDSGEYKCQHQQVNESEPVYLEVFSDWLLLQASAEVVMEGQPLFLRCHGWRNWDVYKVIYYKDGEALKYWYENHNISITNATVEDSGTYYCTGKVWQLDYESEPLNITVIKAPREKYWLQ


Tests used:
[1] = target: T1, FcɛRIα (recombinant, soluble); experiment: SPR; insect-derived IgE-Fc3-4
[2] = target: T1, FcɛRIα (recombinant, soluble); experiment: SPR; insect-derived IgE-Fc3-4
[3] = target: T1, FcɛRIα (recombinant, soluble); experiment: SPR; mammalian-derived IgE-Fc3-4
[4] = target: T1, FcɛRIα (recombinant, soluble); experiment: SPR; mammalian-derived IgE-Fc3-4
[5] = target: T1, FcɛRIα (recombinant, soluble); experiment: SPR; mammalian-derived
[6] = target: T1, FcɛRIα (recombinant, soluble); experiment: SPR; mammalian-derived

| koff [1] | Kd [2] | koff [3] | Kd [4] | koff [5] | Kd [6] | Binder |
| --- | --- | --- | --- | --- | --- | --- |
| 0.000946 s⁻¹ | 0.66 nM | 0.00102 s⁻¹ | 0.933 nM |  |  | IgE-Fc3–4 (wild type) (domain or fragment) CADSNPRGVSAYLSRPSPFDLFIRKSPTITCLVVDLAPSKGTVNLTWSRASGKPVNHSTRKEEKQRNGTLTVTSTLPVGTRDWIEGETYQCRVTHPHLPRALMRSTTKTSGPRAAPEVYAFATPEWPGSRDKRTLACLIQNFMPEDISVQWLHNEVQLPDARHSTTQPRKTKGSGFFVFSRLEVTRAEWEQKDEFICRAVHEAASPSQTVQRAVSVNPGK |
|  |  |  |  | 0.000773 s⁻¹ | 2.26 nM | IgE-R419N-Fc3–4 (domain or fragment, additional N-linked glycan at the site made by R419N (NVT)) CADSNPRGVSAYLSRPSPFDLFIRKSPTITCLVVDLAPSKGTVNLTWSRASGKPVNHSTRKEEKQRNGTLTVTSTLPVGTRDWIEGETYQCNVTHPHLPRALMRSTTKTSGPRAAPEVYAFATPEWPGSRDKRTLACLIQNFMPEDISVQWLHNEVQLPDARHSTTQPRKTKGSGFFVFSRLEVTRAEWEQKDEFICRAVHEAASPSQTVQRAVSVNPGK |
